Experimental data published in PMC3539201.

Assays:
[1] = target: YFP-human-nesprin-3 (human) (UniProt Q6ZMZ3); assay: co-IP
[2] = target: torsinA (endogenous, mouse fibroblasts) (mouse (endogenous in MFs)) (UniProt Q9ER39); assay: co-IP
Sequence of torsinA (endogenous, mouse fibroblasts) (mouse (endogenous in MFs)) (Q9ER39 21-333): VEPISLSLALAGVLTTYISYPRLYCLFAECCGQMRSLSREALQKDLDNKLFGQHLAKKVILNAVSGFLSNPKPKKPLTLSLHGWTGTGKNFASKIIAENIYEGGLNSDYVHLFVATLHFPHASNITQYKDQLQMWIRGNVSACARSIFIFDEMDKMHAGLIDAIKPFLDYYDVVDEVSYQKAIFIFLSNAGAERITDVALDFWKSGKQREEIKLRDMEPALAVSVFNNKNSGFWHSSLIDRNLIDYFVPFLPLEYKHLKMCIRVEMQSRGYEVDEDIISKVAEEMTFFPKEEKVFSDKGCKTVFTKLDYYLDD

Sequence of YFP-human-nesprin-3 (human) (Q6ZMZ3 whole entry): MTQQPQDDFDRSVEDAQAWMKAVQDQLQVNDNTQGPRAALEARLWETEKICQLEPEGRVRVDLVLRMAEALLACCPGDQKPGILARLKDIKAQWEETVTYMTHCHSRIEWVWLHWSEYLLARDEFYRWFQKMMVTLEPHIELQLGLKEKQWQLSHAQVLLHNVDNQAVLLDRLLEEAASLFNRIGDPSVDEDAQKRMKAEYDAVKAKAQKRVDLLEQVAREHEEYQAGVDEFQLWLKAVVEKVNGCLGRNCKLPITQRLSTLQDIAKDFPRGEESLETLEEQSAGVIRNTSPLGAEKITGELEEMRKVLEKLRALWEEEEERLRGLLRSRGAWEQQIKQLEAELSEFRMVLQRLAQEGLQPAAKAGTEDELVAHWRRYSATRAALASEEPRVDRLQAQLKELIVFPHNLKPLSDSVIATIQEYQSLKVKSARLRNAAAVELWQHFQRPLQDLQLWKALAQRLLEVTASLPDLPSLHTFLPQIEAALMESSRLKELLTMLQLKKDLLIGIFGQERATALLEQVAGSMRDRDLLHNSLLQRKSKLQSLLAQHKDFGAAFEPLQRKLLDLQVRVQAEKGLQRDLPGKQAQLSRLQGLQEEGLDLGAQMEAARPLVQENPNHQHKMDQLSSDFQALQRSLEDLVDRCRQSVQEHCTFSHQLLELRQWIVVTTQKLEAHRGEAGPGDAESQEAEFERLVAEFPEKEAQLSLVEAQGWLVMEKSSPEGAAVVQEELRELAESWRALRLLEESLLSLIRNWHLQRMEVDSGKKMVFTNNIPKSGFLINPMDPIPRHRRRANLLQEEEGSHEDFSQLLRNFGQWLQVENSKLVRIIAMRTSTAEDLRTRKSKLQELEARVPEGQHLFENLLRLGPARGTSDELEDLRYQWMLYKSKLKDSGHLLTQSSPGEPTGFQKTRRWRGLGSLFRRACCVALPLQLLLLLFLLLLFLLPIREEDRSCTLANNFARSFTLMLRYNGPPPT
Sequence of torsinAΔE (human, expressed in 293T cells) (O14656 21-332, stated change not applied): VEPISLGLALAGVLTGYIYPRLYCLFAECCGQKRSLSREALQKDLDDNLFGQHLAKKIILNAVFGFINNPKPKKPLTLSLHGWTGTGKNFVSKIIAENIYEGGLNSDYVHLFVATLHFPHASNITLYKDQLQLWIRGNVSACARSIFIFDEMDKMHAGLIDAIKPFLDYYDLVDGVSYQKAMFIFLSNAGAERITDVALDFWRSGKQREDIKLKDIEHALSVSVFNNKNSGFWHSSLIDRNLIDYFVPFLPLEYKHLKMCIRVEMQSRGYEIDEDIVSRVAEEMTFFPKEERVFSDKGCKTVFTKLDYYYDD

percentage immunoprecipitated with YFP-nesprin-3 in the presence of ATP [1] [%] | percentage immunoprecipitated from lysates [2] [%] | Substance
25 |  | torsinAΔE (human, expressed in 293T cells) (from UniProt O14656 21-332) (natural protein)
 | 7 | plectin (endogenous, mouse fibroblasts), Q9QXS1 1-4691
